# Data reported in patent US12246066 (AGENUS, dated 2025).
# Molecular target: T1, human CTLA-4 on Jurkat cells engineered to constitutively express human CTLA-4 (Promega) (human, UniProt P16410 36-223)
# T1 construct: Bought cell line; also called CTLA-4-expressing cells; cells expressing human CTLA-4
# Assay: flow cytometry, 2 µg/ml antibody on Jurkat cells expressing human CTLA-4
# Experimental: Jurkat cells engineered to constitutively express human CTLA-4 (Promega) were used to analyze the binding of anti-CTLA-4 antibodies. Briefly, the cells were stained at 5 ×10^5 cells/well using 2 µg/ml of antibody in a 96-well plate for 30 minutes at 4° C. The cells were washed twice and incubated for 20 minutes at 4° C. with an anti-human IgG secondary antibody (Thermo Scientific, Cat #31529). The cells were washed and suspended in […] of 2% paraformaldehyde (Alfa Aesar, Cat #43368) prepared in PBS. Data were collected with BD FACS Canto II.
row,binding result,Binder
1,binds,"AGEN1884.H2.1 (IgG1) (antibody, V domains shown) VH: EVQLVESGGGLVKPGGSLRLSCAASGFTFSSYSMNWVRQAPGKGLEWVSSISSSSSYIYYADSVKGRFTISRDNAKNSLYLQMNSLRAEDTAVYYCARVGLFGPFDIWGQGTLVTVSS VL: EIVLTQSPGTLSLSPGERATLSCRASQSVSRYLGWYQQKPGQAPRLLIYGASTRATGIPDRFSGSGSGTDFTLTITRLEPEDFAVYYCQQYGSSPWTFGQGTKVEIK"
2,binds,"AGEN1884.H1.2 (IgG1) (antibody, V domains shown) VH: EVQLVESGGGLVKPGGSLRLSCAASGFTFSSYSMNWVRQAPGKGLEWVSSISSSSSYIYYADSVKGRFTISRDNAKNSLYLQMNSLRAEDTAVYYCARVGLMGPFDIWGQGTLVTVSS VL: EIVLTQSPGTLSLSPGERATLSCRASQSVSRYLGWYQQKPGQAPRLLIYGASTRATGIPDRFSGSGSGTDFTLTITRLEPEDFAVYYCQQYGSSPWTFGQGTKVEIK"
3,binds,"AGEN1884.H1.3 (IgG1) (antibody, V domains shown) VH: EVQLVESGGGLVKPGGSLRLSCAASGFTFSSYSMNWVRQAPGKGLEWVSSISSSSSYIYYAESVKGRFTISRDNAKNSLYLQMNSLRAEDTAVYYCARVGLMGPFDIWGQGTMVTVSS VL: EIVLTQSPGTLSLSPGERATLSCRASQSVSRYLGWYQQKPGQAPRLLIYGASTRATGIPDRFSGSGSGTDFTLTITRLEPEDFAVYYCQQYGSSPWTFGQGTKVEIK"

# Further lines, the binder ahead of its results:
row,Binder,binding result
1,"AGEN1884.H1.1 (IgG1) (antibody, V domains shown) VH: EVQLVESGGGLVKPGGSLRLSCAASGFTFSSYSMNWVRQAPGKGLEWVSSISSSSSYIYYADSVKGRFTISRDNAKNSLYLQMNSLRAEDTAVYYCARVGLFGPFDIWGQGTMVTVSS VL: EIVLTQSPGTLSLSPGERATLSCRASQSVSRYLGWYQQKPGQAPRLLIYGASTRATGIPDRFSGSGSGTDFTLTITRLEPEDFAVYYCQQYGSSPWTFGQGTKVEIK",binds
2,"AGEN1884.H2.3 (IgG1) (antibody, V domains shown) VH: EVQLVESGGGLVKPGGSLRLSCAASGFTFSSYSMNWVRQAPGKGLEWVSSISSSSSYIYYAESVKGRFTISRDNAKNSLYLQMNSLRAEDTAVYYCARVGLMGPFDIWGQGTLVTVSS VL: EIVLTQSPGTLSLSPGERATLSCRASQSVSRYLGWYQQKPGQAPRLLIYGASTRATGIPDRFSGSGSGTDFTLTITRLEPEDFAVYYCQQYGSSPWTFGQGTKVEIK",binds
3,"AGEN1884.H2.2 (IgG1) (antibody, V domains shown) VH: EVQLVESGGGLVKPGGSLRLSCAASGFTFSSYSMNWVRQAPGKGLEWVSSISSSSSYIYYAESVKGRFTISRDNAKNSLYLQMNSLRAEDTAVYYCARVGLFGPFDIWGQGTMVTVSS VL: EIVLTQSPGTLSLSPGERATLSCRASQSVSRYLGWYQQKPGQAPRLLIYGASTRATGIPDRFSGSGSGTDFTLTITRLEPEDFAVYYCQQYGSSPWTFGQGTKVEIK",binds

# Molecular target: T1, human CTLA-4 on Jurkat cells engineered …
# Assay: flow cytometry, 5 µg/ml antibody on Jurkat cells expressing human CTLA-4
# Experimental: The binding of anti-CTLA-4 antibodies AGEN1884.H3 (IgG_1 S239D/I332E), AGEN1884.H3 (IgG_1 S239D/A330L/I332E), and AGEN1884.H3 (IgG_1L235V/F243L/R292P/Y300L/P396L) to CTLA-4-expressing cells was characterized similarly as described above. Briefly, Jurkat cells engineered to express human CTLA-4 (Promega) were stained first with 5 μg/ml of an anti-CTLA-4 antibody or an isotype control antibody and then with an anti-human IgG secondary antibody (Thermo Scientific, Cat #31529). The cells were analyzed using BD FACS Canto II.
row,binding result,Binder
1,binds,AGEN1884.H3 (IgG1 L235V/F243L/R292P/Y300L/P396L) (antibody) heavy: EVQLVESGGGLVKPGGSLRLSCAASGFTFSSYSMNWVRQAPGKGLEWVSSISSSSSYIYYAESVKGRFTISRDNAKNSLYLQMNSLRAEDTAVYYCARVGLFGPFDIWGQGTLVTVSSASTKGPSVFPLAPSSKSTSGGTAALGCLVKDYFPEPVTVSWNSGALTSGVHTFPAVLQSSGLYSLSSVVTVPSSSLGTQTYICNVNHKPSNTKVDKRVEPKSCDKTHTCPPCPAPELVGGPSVFLLPPKPKDTLMISRTPEVTCVVVDVSHEDPEVKFNWYVDGVEVHNAKTKPPEEQYNSTLRVVSVLTVLHQDWLNGKEYKCKVSNKALPAPIEKTISKAKGQPREPQVYTLPPSREEMTKNQVSLTCLVKGFYPSDIAVEWESNGQPENNYKTTPLVLDSDGSFFLYSKLTVDKSRWQQGNVFSCSVMHEALHNHYTQKSLSLSPG light: not shown
2,binds,"AGEN1884.H3 (IgG1 S239D/A330L/I332E) (antibody, Section 7.2.2 prints 'A330E'; also called AGEN1884.H3 (IgG1-S239D/A330E/I332E) as printed in section 7.2.2) heavy: EVQLVESGGGLVKPGGSLRLSCAASGFTFSSYSMNWVRQAPGKGLEWVSSISSSSSYIYYAESVKGRFTISRDNAKNSLYLQMNSLRAEDTAVYYCARVGLFGPFDIWGQGTLVTVSSASTKGPSVFPLAPSSKSTSGGTAALGCLVKDYFPEPVTVSWNSGALTSGVHTFPAVLQSSGLYSLSSVVTVPSSSLGTQTYICNVNHKPSNTKVDKRVEPKSCDKTHTCPPCPAPELLGGPDVFLFPPKPKDTLMISRTPEVTCVVVDVSHEDPEVKFNWYVDGVEVHNAKTKPREEQYNSTYRVVSVLTVLHQDWLNGKEYKCKVSNKALPLPEEKTISKAKGQPREPQVYTLPPSREEMTKNQVSLTCLVKGFYPSDIAVEWESNGQPENNYKTTPPVLDSDGSFFLYSKLTVDKSRWQQGNVFSCSVMHEALHNHYTQKSLSLSPG light: not shown"
